The results in this text go back to publication doi:10.1101/2021.06.25.449899 (bioRxiv, 2021).

This series concerns the molecule itself. Briefly: SEC-MALS.

B1: Mycobacterium tuberculosis transcription termination factor Rho, wild type (enzyme)
chain: TDTDLITAGESTDGKPSDAAATDPPDLNADEPAGSLATMVLPELRALANRAGVKGTSGMRKNELIAAIEEIRRQANGAPAVDRSAQEHDKGDRPPSSEAPATQGEQTPTEQIDSQSQQVRPERRSATREAGPSGSGERAGTAADDTDNRQGGQQDAKTEERGTDAGGDQGGDQQASGGQQARGDEDGEARQGRRGRRFRDRRRRGERSGDGAEAELREDDVVQPVAGILDVLDNYAFVRTSGYLPGPHDVYVSMNMVRKNGMRRGDAVTGAVRVPKEGEQPNQRQKFNPLVRLDSINGGSVEDAKKRPEFGKLTPLYPNQRLRLETSTERLTTRVIDLIMPIGKGQRALIVSPPKAGKTTILQDIANAITRNNPECHLMVVLVDERPEEVTDMQRSVKGEVIASTFDRPPSDHTSVAELAIERAKRLVEQGKDVVVLLDSITRLGRAYNNASPASGRILSGGVDSTALYPPKRFLGAARNIEEGGSLTIIATAMVETGSTGDTVIFEEFKGTGNAELKLDRKIAERRVFPAVDVNPSGTRKDELLLSPDEFAIVHKLRRVLSGLDSHQAIDLLMSQLRKTKNNYEFLVQVSKTTPGSMDSD
For the protein B1, the “stoichiometry N” value is 6.
